# Patent US7238857, “Ethylene-responsive transcription coactivators in plants” (Japan and Science and Technology Agency)
# Numbering of substitutions follows the chain as printed.
# B1: mERE (mutant GCC box) (dsDNA)
# DNA 1: GATCTCATAAGATCCTCCACTAAAATAAGACCGATCAAATAAGATCCTCCATG
# DNA 2: GATCCATGGAGGATCTTATTTGATCGGTCTTATTTTAGTGGAGGATCTTATGA
# B2: ERE (2x GCC box) (dsDNA)
# DNA 1: B1 DNA 1 with T13G, T16G, T45G, T48G
# DNA 2: B1 DNA 2 with A10C, A13C, A42C, A45C
# What was measured:
# [1] = target: T1, ERF2 (Nicotiana tabacum, UniProt Q40479 Q40479:1-233); assay: competition; 10 ng unlabeled mERE did not inhibit ERF2-ERE complex; details: tags: His tag (pET15b, Novagen); GATC 5' overhangs
# T1 sequence (Q40479 whole entry, the tested form may be a part, one chain of several): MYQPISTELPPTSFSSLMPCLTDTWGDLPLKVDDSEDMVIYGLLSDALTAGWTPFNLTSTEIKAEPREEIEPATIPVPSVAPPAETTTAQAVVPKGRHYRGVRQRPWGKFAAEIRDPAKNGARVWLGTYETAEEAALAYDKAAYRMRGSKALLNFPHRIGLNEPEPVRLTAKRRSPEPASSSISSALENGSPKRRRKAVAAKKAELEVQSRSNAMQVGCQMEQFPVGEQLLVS
# From the text: The binding activity of ERF2 to ERE was investigated using gel-shift assays. The DNA fragment containing a 53 bp wild-type ethylene-responsive element (ERE) was used as a DNA probe after labeled with a radioactive tracer using (γ^-32P)ATP and T4-polynucleotide kinase (Takara Bio INC., Kyoto, Japan). Multi-copied and linked ERE (SEQ ID NO: 3 and 4) or mERE (SEQ ID NO: 5 and 6) fragments (FIG. 1) were used as wild-type and mutant-type competitors, respectively. mERE (mutant-type) was similar to ERE (wild-type), except that the DNA nucleotide sequence in the GCC box contains base substitutions. The mixture of 1 ng of radio-labeled DNA probe (1,000 to 10,000 cpm) and 10 ng of recombinant ERF without or with 10 ng of a competitor DNA in 10 µl of the binding buffer shown in Table 1 was incubated for 45 minutes at 25° C.
# The samples after binding reaction were subjected to 4% polyacrylamide gel electrophoresis (acrylamide:bisacrylamide=39:1, 1 mm in thickness, 13 cm long) containing 0.25×TB buffer (22.5 mM Tris-borate, pH 8.0) at 25° C. for 3 hrs at 100 V. The gel was dried and exposed to Fuji Imaging Plate® (Fuji Photo Film Co. Ltd., Kanagawa, JAPAN; a radiosensitive layer of phosphor crystals on a polyester backing plate). The electrophoresis mobility pattern was visualized using Bio-Image Analyzer (Fuji Photo Film Co. Ltd., Kanagawa, JAPAN). […]
# [2] = target: T1, ERF2; assay: in vitro transcription activation of pERE in HeLa nuclear extract with tTBP; details: tags: His tag (pET15b, Novagen); label: 32P 5' end; GATC 5' overhangs
# Experimental: (§1) Moreover, the in vitro transcription reaction was assayed in the following way. The HeLa nuclear extracts used for the in vitro transcription were prepared as reported previously (Meth. Enzymol. 101:582–598(1983)).
# The transcription reaction mixture was incubated for 60 min at 30° C. and 75 µl of the reaction stopping solution (Table 2) was added to stop the reaction. Then, 100 µl of PCIAA (50% phenol, 48% chloroform, 2% isoamilalcohol) was added to the reaction mixture to recover the aqueous phase. After that, 100 µl of CIAA (96% chloroform, 4% isoamilalcohol) was added to the aqueous phase and the aqueous phase was recovered. Then, 10 µl of 3 M sodium acetate and 300 µl of ethyl alcohol were added to the aqueous phase to precipitate nucleic acid. The nucleic acid was dried and was dissolved in 10 µl of urea solution (5M urea, 1 mM EDTA, 0.1% bromophenol blue). The nucleic acid sample was subjected to electrophoresis using 6% polyacrylamide gel (acrylamide:bisacrylamide=19:1, 1 mm of thickness, 12.5 cm long) containing 89 mM Tris-borate (pH 8.3), 2 mM EDTA and 8 M urea at 300 V. When bromophenol blue in the sample had migrated to the lowest edge of the gel, the gel was removed and was soaked in 1 L of water containing 5% methanol and 5% acetic acid and then in 1 L of water containing 5% methanol, each for 20 min. […]
# [3] = target: ERF1 (Nicotiana tabacum, UniProt Q40476 Q40476:1-236); assay: in vitro transcription activation of pERE in HeLa nuclear extract; details: tags: His tag (pET15b, Novagen); label: 32P 5' end; GATC 5' overhangs
# Sequence of ERF1 (Q40476 whole entry, one chain of several): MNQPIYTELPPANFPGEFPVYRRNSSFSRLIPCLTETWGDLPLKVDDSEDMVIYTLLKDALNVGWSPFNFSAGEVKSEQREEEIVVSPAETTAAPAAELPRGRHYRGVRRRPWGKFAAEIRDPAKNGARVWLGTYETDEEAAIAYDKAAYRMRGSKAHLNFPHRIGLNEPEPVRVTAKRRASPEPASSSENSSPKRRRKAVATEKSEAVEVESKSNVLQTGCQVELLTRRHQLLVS
# Experimental: as §1
# (§2) The transcription reaction mixture was incubated for 60 min at 30° C. and 75 µl of the reaction stopping solution (Table 2) was added to stop the reaction. Then, 100 µl of PCIAA (50% phenol, 48% chloroform, 2% isoamilalcohol) was added to the reaction mixture to recover the aqueous phase. After that, 100 µl of CIAA (96% chloroform, 4% isoamilalcohol) was added to the aqueous phase and the aqueous phase was recovered. Then, 10 µl of 3 M sodium acetate and 300 µl of ethyl alcohol were added to the aqueous phase to precipitate nucleic acid. The nucleic acid was dried and was dissolved in 10 µl of urea solution (5M urea, 1 mM EDTA, 0.1% bromophenol blue). The nucleic acid sample was subjected to electrophoresis using 6% polyacrylamide gel (acrylamide:bisacrylamide=19:1, 1 mm of thickness, 12.5 cm long) containing 89 mM Tris-borate (pH 8.3), 2 mM EDTA and 8 M urea at 300 V. When bromophenol blue in the sample had migrated to the lowest edge of the gel, the gel was removed and was soaked in 1 L of water containing 5% methanol and 5% acetic acid and then in 1 L of water containing 5% methanol, each for 20 min. Then, the gel was attached to a filter paper, dried and exposed to Fuji Imaging Plate overnight. RNA was visualized using Bio Image Analyzer.
# (§3) As in the case of reference example 2, the inventors examined the activity of transcriptional activation of other ERFs. […] The activity of transcriptional activation of each ERF was as follows; amplification by ERF3, 3 fold; that by ERF4, 3.5 fold; that by ERF1, 4 fold; that by ERF2, 5 fold.
# [4] = target: ERF4 (Nicotiana tabacum, UniProt Q40478 Q40478:1-291); assay: as above; details: tags: His tag (pET15b, Novagen); label: 32P 5' end; GATC 5' overhangs
# Sequence of ERF4 (Q40478 whole entry, one chain of several): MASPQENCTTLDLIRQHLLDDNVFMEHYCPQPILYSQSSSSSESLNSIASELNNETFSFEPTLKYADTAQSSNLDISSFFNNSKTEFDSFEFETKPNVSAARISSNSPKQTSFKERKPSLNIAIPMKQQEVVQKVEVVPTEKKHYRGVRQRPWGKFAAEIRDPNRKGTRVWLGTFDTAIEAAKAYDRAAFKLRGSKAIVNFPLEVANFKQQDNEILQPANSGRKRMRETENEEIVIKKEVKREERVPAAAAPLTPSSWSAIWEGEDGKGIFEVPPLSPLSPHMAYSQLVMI
# Experimental: as §1, §2, §3
# [5] = target: ERF3 (Nicotiana tabacum, UniProt Q40477 Q40477:1-225); assay: as above; details: tags: His tag (pET15b, Novagen); label: 32P 5' end; GATC 5' overhangs
# Sequence of ERF3 (Q40477 whole entry, one chain of several): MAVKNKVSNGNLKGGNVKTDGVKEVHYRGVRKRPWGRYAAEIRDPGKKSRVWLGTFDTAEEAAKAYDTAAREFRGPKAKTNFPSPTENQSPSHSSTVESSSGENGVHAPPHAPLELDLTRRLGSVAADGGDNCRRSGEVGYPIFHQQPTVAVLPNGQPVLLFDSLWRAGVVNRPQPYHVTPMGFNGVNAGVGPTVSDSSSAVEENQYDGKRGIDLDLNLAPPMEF
# Experimental: as §1, §2, §3
Binder,binding result [1],activity [2] [fold],activity [3] [fold],activity [4] [fold],activity [5] [fold]
B1,no binding,–,–,–,–
B2,–,5,4,3.5,3
